{
  "source": "paper PMC11252414",
  "about": "“Enhancing the performance of porous silicon biosensors: the interplay of nanostructure design and microfluidic integration”",
  "details_in_all_cases": "protein: commercial; label: none; single strand",
  "key": {"[1]": {"biological_target": "T1, lactoferrin (LF) (bovine (milk), UniProt P24627 20-708)", "T1 sequence (P24627 20-708)": "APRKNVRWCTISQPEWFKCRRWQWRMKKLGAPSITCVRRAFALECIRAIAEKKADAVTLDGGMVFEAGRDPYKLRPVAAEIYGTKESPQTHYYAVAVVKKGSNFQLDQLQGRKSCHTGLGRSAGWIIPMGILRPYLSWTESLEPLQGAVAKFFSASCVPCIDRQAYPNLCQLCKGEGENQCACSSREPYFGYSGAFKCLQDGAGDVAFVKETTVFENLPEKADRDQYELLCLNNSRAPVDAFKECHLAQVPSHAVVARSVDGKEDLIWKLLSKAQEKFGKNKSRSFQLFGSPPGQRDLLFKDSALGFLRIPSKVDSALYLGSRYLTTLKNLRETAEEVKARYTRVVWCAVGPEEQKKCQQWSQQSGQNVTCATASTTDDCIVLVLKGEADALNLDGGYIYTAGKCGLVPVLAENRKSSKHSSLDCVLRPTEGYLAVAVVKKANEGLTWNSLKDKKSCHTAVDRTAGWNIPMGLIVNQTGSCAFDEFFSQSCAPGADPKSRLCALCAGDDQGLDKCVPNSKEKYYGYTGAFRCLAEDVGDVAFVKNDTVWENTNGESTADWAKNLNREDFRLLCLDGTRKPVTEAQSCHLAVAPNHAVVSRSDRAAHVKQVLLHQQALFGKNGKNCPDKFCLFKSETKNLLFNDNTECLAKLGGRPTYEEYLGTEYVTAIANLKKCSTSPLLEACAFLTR", "assay": "RIFTS (porous Si interferometry); SHM (herringbone) microchannel, 30 ul/min; Selection buffer: PBS (137 mM NaCl, 10 mM Na2HPO4, 2.7 mM KCl, 2 mM KH2PO4) + 1 mM MgCl2, pH 7.4, room temperature; GI fluid at 37 C"}, "[2]": {"biological_target": "T1, lactoferrin (LF)", "assay": "RIFTS (porous Si interferometry); PEG-passivated, LF-spiked porcine GI fluid, 37 C; apparent, LOD 600 nM suggests uM; Selection buffer: PBS (137 mM NaCl, 10 mM Na2HPO4, 2.7 mM KCl, 2 mM KH2PO4) + 1 mM MgCl2, pH 7.4, room temperature; GI fluid at 37 C"}, "[3]": {"biological_target": "T1, lactoferrin (LF)", "assay": "RIFTS (porous Si interferometry); impeller-integrated microchannel, 30 ul/min; Selection buffer: PBS (137 mM NaCl, 10 mM Na2HPO4, 2.7 mM KCl, 2 mM KH2PO4) + 1 mM MgCl2, pH 7.4, room temperature; GI fluid at 37 C"}, "[4]": {"biological_target": "T1, lactoferrin (LF)", "assay": "RIFTS (porous Si interferometry); cell setup, selection buffer, Tris-passivated, 1 mM Mg2+; apparent; Selection buffer: PBS (137 mM NaCl, 10 mM Na2HPO4, 2.7 mM KCl, 2 mM KH2PO4) + 1 mM MgCl2, pH 7.4, room temperature; GI fluid at 37 C"}, "[5]": {"biological_target": "T1, lactoferrin (LF)", "assay": "RIFTS (porous Si interferometry); plain microchannel, 30 ul/min; Selection buffer: PBS (137 mM NaCl, 10 mM Na2HPO4, 2.7 mM KCl, 2 mM KH2PO4) + 1 mM MgCl2, pH 7.4, room temperature; GI fluid at 37 C"}},
  "data": [
    {"binder": "Lac 9-2 anti-LF aptamer with T10 spacer (ssDNA, 3'-amino, coupled via NHS/EDC to carboxylated porous Si) DNA: CAGGCAGGACACCGTAACCGGTGCATCTATGGCTACTAGCTCTTCCTGCCTATTTTTTTTTT", "values": [
      {"measurement": "Kd", "setting": "[1]", "value": "1600 ± 600", "unit": "nM"},
      {"measurement": "Kd", "setting": "[2]", "value": "11.8 ± 1.9", "unit": "nM"},
      {"measurement": "Kd", "setting": "[3]", "value": "1300 ± 600", "unit": "nM"},
      {"measurement": "Kd", "setting": "[4]", "value": "2100 ± 900", "unit": "nM"},
      {"measurement": "Kd", "setting": "[5]", "value": "2000 ± 1000", "unit": "nM"}
    ]}
  ]
}
